Key:
human glioma U87 = test: MTT assay, proliferation of human glioma U87; assay type: cell-based
Procedure: The MTT assay was used to detect the inhibitory effect of the integrin blocker fusion protein obtained in Example 1 on the proliferation of various tumor cells, including melanoma cell B16F10, gastric cancer cell MGC-803, lung cancer cell A549, liver cancer cell Hep-G2, breast cancer cell MDA-MB-231, colon cancer cell HCT-116, human glioma U87, and cervical cancer cell Hela.
The tumor cells were cultured in a 5% CO2 incubator at 37° C. to a density of 90% or more, and collected by trypsinization. The cells were resuspended in the culture liquid and counted under a microscope. The cell concentration was adjusted to 3.0×10^4 cells/mL. The cell suspension was inoculated into a 96-well plate at 100 μL per well and cultured overnight in a 5% CO2 incubator at 37° C. […] After the cells were fully adhered, each dilution was added to a 96-well plate at 100 μL per well, respectively. […] 20 μL of 5 mg/mL MTT was added to each well of a 96-well plate, and incubation was continued for 4 hours. The medium was aspirated and 100 μL of DMSO per well were added to dissolve. The absorbance was measured at 570 nm with a microplate reader with a reference wavelength of 630 nm, and the proliferation inhibition (PI) was calculated. The formula is as follows: […]
(§1) where Ntest is the OD value of the test group and Ncontrol is the OD value of the blank control group.
The test was repeated 5 times independently. The results obtained from the test were calculated as mean±SD, and statistical t-test was performed. P<0.05 was considered as a significant difference, and P<0.01 was considered as an extremely significant difference.

[1] = tested on: human retinal vascular endothelial cell (HRCEC); test: MTT assay, proliferation of human retinal vascular endothelial cell (HRCEC); assay type: cell-based; details: 48 hours
Procedure: The activity of the integrin blocker polypeptide to inhibit proliferation of human retinal vascular endothelial cells was examined by MTT assay. HRCEC cells were cultured in a 5% CO2 incubator at 37° C. to a density of 90% or more, and then collected by trypsinization. The cells were resuspended in the culture liquid and counted under a microscope. The cell concentration was adjusted to 3.0×10^4 cells/mL. The cell suspension was inoculated into a 96-well plate at 100 μL per well and cultured in a 5% CO2 incubator at 37° C. overnight. […] After the cells were fully adhered, each dilution was added to a 96-well plate at 100 μL per well, respectively. […] 20 μL of 5 mg/mL MTT was added to each well of a 96-well plate, and incubation was continued for 4 hours. The medium was aspirated and 100 μL of DMSO was added per well for dissolution. The absorbance was measured at 570 nm with a microplate reader with a reference wavelength of 630 nm, and the proliferation inhibition (PI) was calculated. The formula was as follows: […]
as §1
The test was repeated 5 times independently. The results obtained from the test were calculated as mean±SD, and statistical t-test was performed. P<0.05 was considered as significant difference, and P<0.01 was considered as extremely significant difference.

B1: Protein II: IgG2-Fc linked to antiangiogenesis polypeptide EDSM-Y via a flexible linker; SEQ ID NO: 17 (protein)
chain: ERKCCVECPPCPAPPVAGPSVFLFPPKPKDTLMISRTPEVTCVVVDVSHEDPEVQFNWYVDGVEVHNAKTKPREEQFNSTFRVVSVLTVVHQDWLNGKEYKCKVSNKGLPAPIEKTISKTKGQPREPQVYTLPPSREEMTKNQVSLTCLVKGFYPSDISVEWESNGQPENNYKTTPPMLDSDGSFFLYSKLTVDKSRWQQGNVFSCSVMHEALHNHYTQKSLSLSPGKGGGGSGGGGSGGGGSFQPVLHLVALNSPLSGGMRGIRGADFQCFQQARAVGLAGTFRAGGGGRGD
In the case of B1, the “A570 nm/A630 nm” value (human glioma U87; dose 1 μg/mL) is reported as 0.6788 ± 0.0374, the “PI (%)” value (human glioma U87; dose 1 μg/mL) is reported as 3.01% and the “A570 nm/A630 nm” value (human glioma U87; dose 2 μg/mL) is reported as 0.6523 ± 0.0405. The “PI (%)” value (human glioma U87; dose 2 μg/mL) was 6.80%, the “A570 nm/A630 nm” value (human glioma U87; dose 4 μg/mL) was 0.6021 ± 0.0233 and the “PI (%)” value (human glioma U87; dose 4 μg/mL) was 13.97%. The “A570 nm/A630 nm” value (human glioma U87; dose 8 μg/mL) was 0.5423 ± 0.0357, the “PI (%)” value (human glioma U87; dose 8 μg/mL) was 22.52% and the “A570 nm/A630 nm” value (human glioma U87; dose 16 μg/mL) was 0.5006 ± 0.0282. The “PI (%)” value (human glioma U87; dose 16 μg/mL) was 28.48%, the “A570 nm/A630 nm” value (human glioma U87; dose 32 μg/mL) was 0.4652 ± 0.0249 and the “PI (%)” value (human glioma U87; dose 32 μg/mL) was 33.53%. The “A570 nm/A630 nm” value (human glioma U87; dose 64 μg/mL) was 0.4080 ± 0.0366, the “PI (%)” value (human glioma U87; dose 64 μg/mL) was 41.71% and the “PI (%)” value (human glioma U87; dose 64 μg/mL, listed as protein II) was “about 50%”. For the same molecule, the “A570 nm/A630 nm” value (human glioma U87; dose 128 μg/mL) was 0.3143 ± 0.0279, the “PI (%)” value (human glioma U87; dose 128 μg/mL) was 55.09% and the “A570 nm/A630 nm” value (human glioma U87; dose 256 μg/mL) was 0.2222 ± 0.0316. For the same molecule, the “PI (%)” value (human glioma U87; dose 256 μg/mL) was 68.25%, the “A570 nm/A630 nm” value ([1]; 1 μg/mL) was 1.1122 ± 0.0385 and the PI ([1]; 1 μg/mL) was 17.44%. The “A570 nm/A630 nm” value ([1]; 2 μg/mL) was 1.0002 ± 0.0405, the PI ([1]; 2 μg/mL) was 25.75% and the “A570 nm/A630 nm” value ([1]; 4 μg/mL) was 0.9287 ± 0.0288. For the same molecule, the PI ([1]; 4 μg/mL) was 31.06%, the “A570 nm/A630 nm” value ([1]; 8 μg/mL) was 0.8999 ± 0.0320 and the PI ([1]; 8 μg/mL) was 33.20%. The “A570 nm/A630 nm” value ([1]; 16 μg/mL) was 0.8225 ± 0.0291, the PI ([1]; 16 μg/mL) was 38.94% and the “A570 nm/A630 nm” value ([1]; 32 μg/mL) was 0.7348 ± 0.0277. For the same molecule, the PI ([1]; 32 μg/mL) was 45.45%, the “A570 nm/A630 nm” value ([1]; 64 μg/mL) was 0.5748 ± 0.0314 and the PI ([1]; 64 μg/mL) was 57.33%. The “A570 nm/A630 nm” value ([1]; 128 μg/mL) was 0.3628 ± 0.0282, the PI ([1]; 128 μg/mL) was 73.07% and the “A570 nm/A630 nm” value ([1]; 256 μg/mL) was 0.1495 ± 0.0314. The PI ([1]; 256 μg/mL) was 88.90%.

Reference: US11407811B2, “Fusion protein, preparation method therefor and use thereof” (JIANGSU RONGTAI BIOTECH CO., LTD., priority 2017, dated 2022)
